In this assay the target is T1, human ROR1 on cells (human, UniProt Q01973 30-937).
T1 construct: whole, on cells
Description: Scatchard plot of 125I-labelled 009-G03 binding to RPMI-8226 cells, 2.5 h on ice. The protocol:
Antibody was labelled with ¹²⁵I using free Iodine and test tubes pre-coated with the oxidant reagent Iodogen (1,3,4,6-tetrachloro-3α,6α-diphenylglycoluri, Thermo scientific), according to manufactures instruction. Briefly 200 μg of antibody was labeled for 10 minutes in PBS and free iodine were removed using a small disposable desalting columns (NAP 5, GE Healthcare Life science). […] 0.5×10⁶ cells were incubated for 2.5 h on ice with different concentrations of ¹²⁵I-labelled 009-G03 antibody. Free nonbinding antibody (F) was separated from cell bound antibody (B) by centrifugation through a 40% Ficoll-cushion and samples were analysed in a gamma counter (FIG. 29).

T1 sequence (Q01973 30-937): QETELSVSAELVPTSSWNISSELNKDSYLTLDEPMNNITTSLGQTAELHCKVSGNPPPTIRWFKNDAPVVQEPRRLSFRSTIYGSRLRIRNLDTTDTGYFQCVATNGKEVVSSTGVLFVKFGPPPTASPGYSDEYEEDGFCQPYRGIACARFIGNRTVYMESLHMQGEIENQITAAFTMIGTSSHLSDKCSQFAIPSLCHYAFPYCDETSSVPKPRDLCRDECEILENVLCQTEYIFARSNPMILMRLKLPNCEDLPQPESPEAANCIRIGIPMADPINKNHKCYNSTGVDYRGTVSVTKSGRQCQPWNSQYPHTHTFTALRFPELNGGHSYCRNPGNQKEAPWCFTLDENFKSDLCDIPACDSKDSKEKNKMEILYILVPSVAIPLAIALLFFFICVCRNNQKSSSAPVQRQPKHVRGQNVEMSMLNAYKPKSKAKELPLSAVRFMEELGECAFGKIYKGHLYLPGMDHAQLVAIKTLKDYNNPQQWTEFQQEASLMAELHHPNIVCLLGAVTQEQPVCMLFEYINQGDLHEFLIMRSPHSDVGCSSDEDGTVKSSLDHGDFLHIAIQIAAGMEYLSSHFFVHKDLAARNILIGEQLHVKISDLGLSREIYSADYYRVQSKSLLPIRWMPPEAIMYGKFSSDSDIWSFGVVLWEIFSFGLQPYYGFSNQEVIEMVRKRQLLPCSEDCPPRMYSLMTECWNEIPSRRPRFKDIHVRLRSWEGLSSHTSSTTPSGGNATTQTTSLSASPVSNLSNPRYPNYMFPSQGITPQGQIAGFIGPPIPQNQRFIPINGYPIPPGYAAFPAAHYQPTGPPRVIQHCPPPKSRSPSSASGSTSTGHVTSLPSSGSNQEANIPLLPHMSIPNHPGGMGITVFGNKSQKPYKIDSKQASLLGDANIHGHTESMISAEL

B1: ROR1-009-G03 (antibody, V domains shown)
VH: EVQLLESGGGLVQPGGSLRLSCAASGFTFSDYYMSWIRQAPGKGLEWVSAISGSGGSTYYADSVKGRFTISRDNSKNTLYLQMNSLRAEDTAVYYCAKEDWEGASFDYWGQGTLVTVSS
VL: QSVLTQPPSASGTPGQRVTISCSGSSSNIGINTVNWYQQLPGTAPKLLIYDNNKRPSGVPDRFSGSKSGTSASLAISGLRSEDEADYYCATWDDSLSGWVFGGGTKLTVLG
notes: also called ROR 009 G03; ROR1 specific mAb 009-G03
B1 had a dissociation constant Kd of 1 nM.

These data come from patent US20130281922A1 (KANCERA, published 2013).
